The results in this text go back to PMC11091121, “The structural basis for 2′−5′/3′−5′-cGAMP synthesis by cGAS”.

For one series, the target named is QN-mcGAScat (mouse, UniProt Q8C6L5 147-507, E211Q;D213N). The series is described as follows: crystal structure; ATP, GTP, Mg2+; FA: 5 nM FAM-dsDNA, as previously reported (reaction buffer likely 25 mM Tris-acetate pH 7.4, 125 mM KAc, 5 mM MgAc2, 1 mM TCEP, 5% glycerol, 25 C); crystals: 0.2 M ammonium acetate, 32% MPD, 0.1 M Bis-Tris pH 6.5, 4 C. The settings on record: protein: recombinant; tags: none left (N-terminal 6xHis-MBP removed by TEV); chain copies: 2; blunt; self-complementary, 2 copies of the strand.

In the next series the target is WT-mcGAScat (mouse, UniProt Q8C6L5 147-507). The series is described as follows: crystal structure; 2'-dATP; FA: 5 nM FAM-dsDNA, as previously reported (reaction buffer likely 25 mM Tris-acetate pH 7.4, 125 mM KAc, 5 mM MgAc2, 1 mM TCEP, 5% glycerol, 25 C); crystals: 0.2 M ammonium acetate, 32% MPD, 0.1 M Bis-Tris pH 6.5, 4 C. The conditions noted are these: protein: recombinant; tags: none left (N-terminal 6xHis-MBP removed by TEV); chain copies: 2; blunt; self-complementary, 2 copies of the strand.
Sequence of WT-mcGAScat (Q8C6L5 147-507): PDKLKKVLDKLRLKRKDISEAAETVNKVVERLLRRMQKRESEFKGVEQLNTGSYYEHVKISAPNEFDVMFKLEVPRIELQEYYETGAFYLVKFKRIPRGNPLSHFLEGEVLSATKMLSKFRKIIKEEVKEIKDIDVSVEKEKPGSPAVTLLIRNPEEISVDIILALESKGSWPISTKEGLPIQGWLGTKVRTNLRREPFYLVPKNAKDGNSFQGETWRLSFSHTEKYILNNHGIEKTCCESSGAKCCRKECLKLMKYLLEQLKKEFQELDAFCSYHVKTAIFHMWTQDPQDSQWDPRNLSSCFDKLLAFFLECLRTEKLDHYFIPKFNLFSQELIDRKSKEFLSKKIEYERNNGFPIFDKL

Sequence of QN-mcGAScat (Q8C6L5 147-507 E211Q/D213N): as the sequence (Q8C6L5 147-507) above, with E65Q, D67N counted along it

B1: 18-bp palindromic dsDNA (dsDNA)
DNA 1: ATCTGTACATGTACAGAT
DNA 2: ATCTGTACATGTACAGAT
Take B1: the binding result in the series with QN-mcGAScat and in the series with WT-mcGAScat was “binds” each time.
